In the assay the target is Orb2A PLD (Drosophila), Q9VSR3. Description: cell-based or functional assay.

B1: minimal active core of QBP1 (QBP1 fragment), Ac-WKWWPGIF-NH2 (peptide)
peptide: Ac-WKWWPGIF-NH2
The molecule B1 came in with a formation of M (mechanostable) conformers, AFM-SMFS of 16.1%.

For the origin of these results see patent US20180125921A1, “USE OF QBP1 PEPTIDE FOR THE INHIBITION OF MEMORY CONSOLIDATION” (CONSEJO SUPERIOR DE INVESTIGACIONES CIENTÍFICAS, priority 2015, published 2018).
